Reference: US20210047395A1 (Hoffmann-La Roche, published 2021)
Substitutions are numbered along the chain they refer to. Names and notes keep the numbering of the source.

Experiments:
[1] = biological target: T1, VEGF-121-His (inhouse production) (human, UniProt P15692 207-395); assay: VEGF:VEGF-R1 inhibition ELISA (Example 4, as Example 2): 0.34 nM VEGF-121-His pre-incubated with the Fab, then added to plate-bound biotinylated VEGF-R1, anti-His POD detection; blocked partner: VEGF-R1
T1 construct: Treated as one molecule; also called hVEGF-A121; not shown: His tag
T1 sequence: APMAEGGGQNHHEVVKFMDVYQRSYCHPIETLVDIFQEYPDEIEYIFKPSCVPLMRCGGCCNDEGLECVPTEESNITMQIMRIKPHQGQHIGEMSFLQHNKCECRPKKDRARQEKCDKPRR

[2] = biological target: T1, VEGF-121-His (inhouse production); assay: SPR, hVEGF-A121 captured by anti-His antibody, 25 C
Description: (§1) An anti-His capturing antibody (GE Healthcare 28995056) was immobilized to a Series S Sensor Chip C1 (GE Healthcare 29104990) using standard amine coupling chemistry resulting in a surface densitiy of 500-1000 resonance units (RU). […] The surface was regenerated by injecting 10 mM Glycine pH 1.5 for 60 s. […] Rate constants were calculated using the Langmuir 1:1 binding model within the Biacore Evaluation software.
(§2) The affinity of the antibodies was determined by SPR using the same methods as described in Example 2.

[3] = biological target: T1, VEGF-121-His (inhouse production); assay: SPR, hVEGF-A121 captured by anti-His antibody, 37 C
Description: as §1, §2

[4] = biological target: T2, VEGF (as used in the Biacore active concentration test of Example 6) (Homo sapiens (Human), UniProt P15692 27-147, VEGF is a disulfide-linked homodimer; one protomer is given); assay: Biacore, normalized to unstressed aliquot; Fab stressed 2 w/37 C/pH 7.4
T2 sequence: T1 sequence
Description: (§3) Antibody samples were formulated in 20 mM His/HisCl, 140 mM NaCl, pH 6.0, and were split into three aliquots: one aliquot was re-buffered into PBS, respectively, and two aliquots were kept in the original formulation. The PBS aliquot and one His/HisC1 aliquot were incubated for 2 weeks (2 w) at 40° C. (His/NaCl) or 37° C. (PBS) in 1 mg/ml, the PBS sample was incubated further for total 4 weeks (4 w). The third control aliquot sample was stored at −80° C.

[5] = biological target: T2, VEGF (as used in the Biacore active …); assay: Biacore, normalized to unstressed aliquot; Fab stressed 2 w/40 C/pH 6.0
Description: as §3

[6] = biological target: T2, VEGF (as used in the Biacore active …); assay: Biacore, normalized to unstressed aliquot; Fab stressed 4 w/37 C/pH 7.4
Description: as §3

[7] = biological target: T1, VEGF-121-His (inhouse production); assay: VEGF:VEGF-R1 inhibition ELISA (Example 4, as Example 2): 0.7 nM VEGF-121-His pre-incubated with the Fab, then added to plate-bound biotinylated VEGF-R1, anti-His POD detection; blocked partner: VEGF-R1
Description: Plates were incubated for 1 h at room temperature. […] Plates were incubated for 1 h at room temperature. […] After washing 3 times with 90 μl/well PBST-buffer, 25 μl/well detection antibody (anti His POD, Bethyl, #A190-114P, 1:12000) in 1×OSEP was added. After incubation for 1 h at room temperature plates were washed 3 times with 90 μl PBST-buffer. 25 μl TMB (Roche, #11 835 033 001) was added to all wells simultaneously. After 10 min incubation at room temperature, signals were detected at 370 nm/492 nm on a Tecan Safire 2 Reader.

B1: VEGF-P1AD8674 Fab (Fab, V domains shown)
VH: EVQLVESGGGLVQPGGSLRLSCAASGFTFTNYAMTWVRQAPGKGLEWVSSIGNGGGIYTYYADSVKGRFTISRNNAENTLYLQMNSLRAEDTAVYYCAKGDNLFDSWGPGTLVTVSS
VL: DIQMTQSPASLSASVGDRVTITCRASQSIYSSLNWYQQKPGKAPKLLIYASTLQSGVPSRFSGSASGTDFTLTISSLQPEDVATYYCQQYQNFPRTFGQGTKLEIKR
B1: binds [1].

B2: VEGF-P1AE3519 Fab (Fab, V domains shown)
VH: B1 VH with N53S, N74D, A76W, E77K
VL: B1 VL
notes: Control variant of VEGF-0089 with N52aS in H-CDR2 and S74W in H-FR3 (Kabat)
In the case of B2, the Kd [2] is reported as 0.119 nM, the Kd [3] is reported as 0.094 nM and the “VEGF-binding activity after stress (relative active concentration)” value [4] is reported as 102. The “VEGF-binding activity after stress (relative active concentration)” value [5] was 102 and the “VEGF-binding activity after stress (relative active concentration)” value [6] was 102.

B3: VEGF-0112 Fab (Fab, V domains shown)
VH: B1 VH with N53S, N74D, A76S, E77K
VL: B1 VL
B3: binds [7].
